We go through 2 molecules from paper PMC3813556, “Probing the Dynamic Process of Encapsulation in Escherichia coli GroEL” (PLoS ONE, 2013).

Assay [1] addresses GroEL SR-1 RW (E. coli) (UniProt P0A6F5). Put plainly: FRET or BRET; stopped-flow intermolecular FRET from the apical domain tryptophan of the GroEL mutant to prebound acid-unfolded AEDANS-GroELwt (equimolar); decrease of FRET after addition of ATP and GroES. (Bioluminescence resonance energy transfer reports proximity on the nanometre scale.)
Assay [2] deals with T1, GroEL R231W (E. coli, UniProt P0A6F5 1-548, R231W).
T1 construct: GroEL, E. coli, with a unique tryptophan in the apical domain; Double ring 14-mer; copies: 14
Put plainly: stopped-flow tryptophan fluorescence; GroEL with prebound Gdn-HCl-unfolded MDH (5 min pre-incubation at 25°C); 0.625 µM GroEL oligomer; 1 mM ATP without or with equimolar GroES. The conditions noted are these: both partners purified.

For the molecule “AEDANS-labelled, acid-unfolded wild type GroEL (from UniProt P0A6F5 1-548) (natural protein)”, in assay [1], the k of PhaseFRET2 (rate of release of the bound unfolded protein) worked out at 0.21 s⁻¹ and the k of PhaseFRET (rate of release of the bound unfolded protein) worked out at 4.1 s⁻¹.

B1: GroES (natural protein, E. coli, UniProt P0A6F9 1-97, looked up)
chain: MNIRPLHDRVIVKRKEVETKSAGGIVLTGSAAAKSTRGEVLAVGNGRILENGEVKPLDVKVGDIVIFNDGYGVKSEKIDNEEVLIMSESDILAIVEA
notes: GroES, co-chaperonin of the E. coli chaperonin GroE; also called wild type GroES; co-chaperonin GroES
In the case of B1, the binding result in assay [2] was “binds”.
